{"source": "patent US20060024289", "molecules": {"B1": {"name": "wild-type MT-SP1 protease domain (protein)", "chain": "VVGGTDADEGEWPWQVSLHALGQGHICGASLISPNWLVSAAHCYIDDRGFRYSDPTQWTAFLGLHDQSQRSAPGVQERRLKRIISHPFFNDFTFDYDIALLELEKPAEYSSMVRPICLPDASHVFPAGKAIWVTGWGHTQYGGTGALILQKGEIRVINQTTCENLLPQQITPRMMCVGFLSGGVDSCQGDSGGPLSSVEADGRIFQAGVVSWGDGCAQRNKPGVYTRLPLFRDWIKENTGV"}}, "key": {"[1]": {"system": "T1, Ac-RRVR-AMC", "T1 sequence": "RRVR"}, "[2]": {"biological_target": "VEGF165 (UniProt P15692)"}, "[3]": {"system": "T2, Ac-IEPD-AMC", "T2 sequence": "XIEPDX"}, "[4]": {"biological_target": "T3, Ac-RQAR-AMC", "T3 chain": "RQAR"}, "[5]": {"biological_target": "T4, VEGF165, P15692", "T4 chain": "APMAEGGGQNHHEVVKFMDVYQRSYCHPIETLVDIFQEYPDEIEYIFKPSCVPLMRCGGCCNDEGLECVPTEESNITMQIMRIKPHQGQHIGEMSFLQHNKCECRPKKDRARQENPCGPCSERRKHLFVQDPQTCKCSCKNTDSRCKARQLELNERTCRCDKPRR"}, "[6]": {"biological_target": "T5, extracellular domain of VEGF-R2 (Flk1) fused to the Fc domain of mouse IgG", "T5 chain": "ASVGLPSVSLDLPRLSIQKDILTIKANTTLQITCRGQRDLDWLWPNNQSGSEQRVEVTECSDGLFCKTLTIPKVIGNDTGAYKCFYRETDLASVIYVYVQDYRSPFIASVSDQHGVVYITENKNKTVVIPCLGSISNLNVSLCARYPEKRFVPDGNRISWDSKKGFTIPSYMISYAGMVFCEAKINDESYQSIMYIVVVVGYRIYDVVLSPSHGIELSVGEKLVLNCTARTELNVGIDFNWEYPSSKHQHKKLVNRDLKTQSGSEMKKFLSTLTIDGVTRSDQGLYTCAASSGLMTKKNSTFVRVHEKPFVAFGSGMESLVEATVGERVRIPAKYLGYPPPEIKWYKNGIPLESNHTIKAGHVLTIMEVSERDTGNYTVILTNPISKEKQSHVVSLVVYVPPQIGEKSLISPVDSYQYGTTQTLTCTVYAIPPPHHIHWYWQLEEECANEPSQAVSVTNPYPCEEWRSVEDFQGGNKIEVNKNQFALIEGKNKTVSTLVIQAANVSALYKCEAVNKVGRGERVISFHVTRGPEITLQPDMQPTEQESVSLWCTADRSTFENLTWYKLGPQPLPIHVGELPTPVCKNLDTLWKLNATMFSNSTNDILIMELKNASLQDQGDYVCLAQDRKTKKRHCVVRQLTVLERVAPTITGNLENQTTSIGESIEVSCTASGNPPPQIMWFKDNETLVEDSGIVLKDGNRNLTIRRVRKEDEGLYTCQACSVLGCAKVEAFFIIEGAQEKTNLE"}}, "data": [{"molecule": "MT-SP1 mutein CB152 (F99V/K224F)", "values": [{"measurement": "preference of RRVR over RQAR substrate (ratio of kcat/Km)", "setting": "[1]", "result": "prefer RRVR to RQAR by greater than 8 fold"}, {"measurement": "cleavage of 5 µM VEGF165 by 100 nM protease, 37° C., five hours (SDS-PAGE, silver stain)", "setting": "[2]", "result": "while the more selective variant CB152 does not"}]}, {"molecule": "rat granzyme B R192A", "values": [{"measurement": "specificity constant (kcat/Km)", "setting": "[3]", "result": 55, "unit": "M⁻¹ s⁻¹"}]}, {"molecule": "B1", "values": [{"measurement": "preference of RQAR over RRVR substrate (ratio of kcat/Km)", "setting": "[4]", "result": 2, "unit": "times"}, {"measurement": "cleavage of 5 µM VEGF165 by 100 nM protease, 37° C., five hours (SDS-PAGE, silver stain)", "setting": "[5]", "result": "MT-SP1 efficiently cleaves VEGF^165 under the assay conditions"}, {"measurement": "cleavage of purified Flk1-Fc by 1 µM protease (SDS-PAGE, Edman sequencing)", "setting": "[6]", "result": "Purified VEGFR2-Fc is cleaved by wild-type and mutant MT-SP1 at the sequence RRVR/KEDE in the extracellular stalk region of the receptor"}, {"measurement": "cleavage of purified VEGFR2-Fc (SDS-PAGE)", "setting": "[6]", "result": "The purified VEGFR2-Fc is efficiently cleaved by wild-type and mutant MT-SP1 ... None of the protease variants or wild-type cleave the Fc domain"}]}]}
